From article PMC5877385, “Gold nanoparticles stabilize peptide-drug-conjugates for sustained targeted drug delivery to cancer cells” (Journal of Nanobiotechnology, 2018)
Where a SMILES comes first, the peptide text is derived from it. [ ]: non-standard residue; d: D form. The star is where a group is joined. Phe(4-N(CH2CH2Cl)2) = N[C@@H](Cc1ccc(N(CCCl)CCCl)cc1)C(=O)O; Chlorambucil = O=C(CCCc1ccc(N(CCCl)CCCl)cc1)*; X1 = Cn1c(CCCC(=O)*)nc2cc(N(CCCl)CCCl)ccc21

How the values were obtained:
[1] = Chemostability in phosphate buffer; assay type: physicochemical; conditions: free PDC; 0.01 M phosphate buffer (method pH 7.2), 37 °C, LC-MS PDC peak area, exponential decay fit, two independent experiments
Procedure: Stock solutions were prepared by dissolving 5 mg of P4-chlorambucil, P4-melphalan or P4-bendamustine coated PEG-AuNPs in 1 mL of deionized water.
100 μl of stock solution were diluted to 1 ml of 0.01 M phosphate buffer solution pH 7.2 and incubated at 37 °C. At designated time points an aliquot was removed and centrifuged at 5000 rpm for 5 min. The supernatant was recovered, filtered through a […] syringe and analyzed by LCMS for the presence of free drug. Results for each time point were expressed as mean % PDC integrity ± standard error, calculated from two independent experiments.
(§1) The chemo-stability of the P4-PDCs was tested at a physiological pH of 7.4, while the solutions were incubated at 37 °C. Biostability was assessed after incubation in a mouse liver homogenate. In each case aliquots were taken at selected times and analyzed by LC–MS. PDC integrity was determined by calculating the area under the curve of the PDC peak. The R^2 values of the exponential decay curves ranged from 0.97 to 0.99 for the three PDCs; the functions of these curves were used to calculate the t½ values. […] In liver homogenate (Fig. 5c), stability decayed more rapidly with half-lives ranging from 10.6 to 15.4 min. There was no significant difference in behavior between the three PDCs and no free drug was observed.

[2] = Biostability in liver homogenate; assay type: in vitro ADME; conditions: pH 7.4; free PDC; 100 µl sample in 1 ml mouse liver homogenate (6 mg total protein), 37 °C, LC-MS, exponential decay fit; read-out: Biostability (liver homogenate) t½
Procedure: Mice were sacrificed by CO2 euthanasia. Livers were removed, and rinsed in cold 0.01 M PBS buffer pH 7.4. They were transferred to 10 ml Tris-HCI, pH 7.4 and homogenized in a Potter–Elvehjem glass tissue grinder for 4 min. The tissue homogenate was centrifuged for 20 min at 4 °C, 14,000 rpm, and the supernatant was collected. Protein concentration was measured using the BCA protein assay using bovine serum albumin as a standard. The homogenate was used immediately or else stored in liquid nitrogen.
100 μl of each sample was added to 1 ml of liver homogenate (equivalent to 6 mg total protein). The samples were incubated at 37 °C and aliquots were taken during the different incubation period at different time intervals. The collected aliquots were immediately filtered, and analyzed by LC–MS.
as §1

A20 cells = assay: Cell cytotoxicity assay (XTT); assay type: cell-based, murine; conditions: 72 h, free drug 0-50 µM; for IC50: Mus musculus
Procedure: To measure drug cytotoxic effect, cells were seeded into 96-wells Nunclon culture plates at 2.5 × 10^3 cells per well and grown overnight at 37 °C. The spent medium was removed and the cells cultured for 72 h in fresh medium containing either free drug, PDCs, PEG-AuNPs or PDC-PEG-AuNPs at concentrations ranging from 0 to 50 µM (drug) filtered through a 0.22 µm syringe. Cellular metabolic status, used as a measure of cell viability, was then determined by replacing the culture medium with fresh medium containing XTT reagent (50 µl/well) and the cells were re-cultured for 2 h sat 37 °C. Absorbance in the wells was measured at 450 nm and subtracted from the reference absorbance at 630 nm. Culture medium was used as background control. All experiments were performed in triplicate on three separate occasions. Data are presented as mean ± S.D.

**Q.** For C[C@@H](O)[C@H](NC(=O)[C@H](CO)NC(=O)[C@H](Cc1c[nH]cn1)NC(=O)CCCc1ccc(N(CCCl)CCCl)cc1)C(=O)N1CCC[C@H]1C(=O)N[C@@H](CO)C(=O)N[C@@H](CO)C(=O)N1CCC[C@H]1C(=O)O [P4-Chlorambucil] (Chlorambucil-HSTPSSP-OH), which “Chemostability (pH 7.4) t½” value [1] is on record?
**A.** 21.5 mins

**Q.** And the half-life [2]?
**A.** 12.4 min

**Q.** With C[C@@H](O)[C@H](NC(=O)[C@H](CO)NC(=O)[C@H](Cc1c[nH]cn1)NC(=O)CCCc1nc2cc(N(CCCl)CCCl)ccc2n1C)C(=O)N1CCC[C@H]1C(=O)N[C@@H](CO)C(=O)N[C@@H](CO)C(=O)N1CCC[C@H]1C(=O)O [P4-Bendamustine] (X1-HSTPSSP-OH) as the compound, how does the “Chemostability (pH 7.4) t½” value [1] read?
**A.** 19.3 mins

**Q.** And the half-life [2]?
**A.** 15.4 min

**Q.** Which results are given for C[C@@H](O)[C@H](NC(=O)[C@H](CO)NC(=O)[C@H](Cc1c[nH]cn1)NC(=O)[C@@H](N)Cc1ccc(N(CCCl)CCCl)cc1)C(=O)N1CCC[C@H]1C(=O)N[C@@H](CO)C(=O)N[C@@H](CO)C(=O)N1CCC[C@H]1C(=O)O [P4-Melphalan] (H-[Phe(4-N(CH2CH2Cl)2)]HSTPSSP-OH)?
**A.** Chemostability (pH 7.4) t½ [1]: 24.6 mins; half-life [2]: 10.6 min

**Q.** Which “maximal %GI (growth inhibition)” value (A20 cells) does the source give for Cn1c(CCCC(=O)O)nc2cc(N(CCCl)CCCl)ccc21 [bendamustine] here?
**A.** 43.1%

**Q.** What about the IC50 (A20 cells) of the same compound?
**A.** > 50 µM

**Q.** What does the source list for O=C(O)CCCc1ccc(N(CCCl)CCCl)cc1 [Chlorambucil]?
**A.** maximal %GI (growth inhibition) (A20 cells): 89.4%; IC50 (A20 cells): 15.8 µM

**Q.** With N[C@@H](Cc1ccc(N(CCCl)CCCl)cc1)C(=O)O [Melphalan] as the compound, how does the “maximal %GI (growth inhibition)” value (A20 cells) read?
**A.** 94.9%

**Q.** And the IC50 (A20 cells)?
**A.** 9.6 µM
